Reference: patent US20160186149A1

B1: recombinant human N-acetylgalactosamine-6-sulfatase (GALNS), purified, produced from G71S clone 4 co-expressing human SUMF1 (enzyme)
chain: APQPPNILLLLMDDMGWGDLGVYGEPSRETPNLDRMAAEGLLFPNFYSANPLCSPSRAALLTGRLPIRNGFYTTNAHARNAYTPQEIVGGIPDSEQLLPELLKKAGYVSKIVGKWHLGHRPQFHPLKHGFDEWFGSPNCHFGPYDNKARPNIPVYRDWEMVGRYYEEFPINLKTGEANLTQIYLQEALDFIKRQARHHPFFLYWAVDATHAPVYASKPFLGTSQRGRYGDAVREIDDSIGKILELLQDLHVADNTFVFFTSDNGAALISAPEQGGSNGPFLCGKQTTFEGGMREPALAWWPGHVTAGQVSHQLGSIMDLFTTSLALAGLTPPSDRAIDGLNLLPTLLQGRLMDRPIFYYRGDTLMAATLGQHKAHFWTWTNSWENFRQGIDFCPGQNVSGVTTHNLEDHTKLPLIFHLGRDPGERFPLSFASAEYQEALSRITSVVQQHQEALVPAQPQLNVCNWAVMNWAPPGCEKLGKCLTPPESIPKKCLWSH
modifications: Cys at position 53 of the precursor (position 79 of SEQ ID NO:4) converted to Calpha-formylglycine (FGly), about 90%; N-linked glycosylation at Asn178 (bis-phosphorylated mannose 7, BPM7) and Asn397 (oligomannose-type), precursor numbering; 0.58 mol M6P (BPM7)/mol GALNS
B2: recombinant human N-acetylgalactosamine-6-sulfatase (GALNS), purified, produced from G71S clone C2 co-expressing human SUMF1 (enzyme)
chain: B1 chain
modifications: Cys at position 53 of the precursor (position 79 of SEQ ID NO:4) converted to Calpha-formylglycine (FGly); N-linked glycosylation at Asn178 (BPM7) and Asn397; 0.69 mol M6P/mol GALNS

Tests used:
[1] = target: mannose-6-phosphate (M6P) receptor; test: M6P receptor affinity column (Affi-Gel 15), 6 ug GALNS loaded, eluted with mannose-6-phosphate gradient, quantified by GALNS ELISA
[2] = target: mannose-6-phosphate (M6P) receptor; test: M6P receptor plate binding assay: receptor coated at 4 ug/mL, GALNS 0.16-10 nM, bound GALNS read by enzyme activity, single-site binding fit
[3] = target: mannose-6-phosphate (M6P) receptor; test: M6P receptor plate binding assay

M6P Receptor Column Binding: % Bound [1] [%] | Kd [2] [nM] | Kd [3] [nM] | Binder
56 | 2.4 | – | B1
– | – | 5.7 | B2
